According to patent US20250304717A1, “CAMPTOTHECIN DERIVATIVE AND LIGAND-DRUG CONJUGATE” (HAINAN SIMCERE ZAIMING PHARMACEUTICAL CO., LTD., priority 2022, published 2025):
Read-outs that look alike come from different tables or passages of the source.

Key:
[1] = biological target: human ROR1 on stably transfected cell strain MCF7-hROR1 clone 2G2 (human) (UniProt Q01973); assay: flow cytometry (FACS) on MCF7-hROR1 clone 2G2 cells, identification of the stably transfected clone
[2] = system: SKBR3 tumor cell; assay: Binding of anti-HER2 ADC and antibody with SKBR3 tumor cell by FACS; parameters: species or system human
Description: SKBR3 cells (from ATCC) were collected, counted, and plated in a 96-well plate (Corning, 3795) at 2×10^5 cells/well. The serially diluted sample to be detected was added and incubated at 4° C. for 1 h. After the mixture was washed twice with ice PBS, Alexa Fluor-647 goat anti-human Fc secondary antibody (JacksonImmuno, 109-605-098) was added, and the mixture was incubated at 4° C. for 1 h. After the mixture was washed twice with ice PBS, the cells were resuspended, and the mean fluorescence intensity (MFI) was analyzed using a flow cytometer (BD FACSCanto™ II). Data were analyzed by four-parameter curve fitting using Graphpad Prism software to give EC50 values.

[3] = system: OVCAR3 subcutaneous tumor model; assay: Efficacy in OVCAR3 subcutaneous tumor model-1; format: in vivo, Balb/c nude mice; conditions: 3 mg/kg, single intravenous injection
From the text: Experimental reagent: Human ovarian cancer OVCAR3 cells were purchased from ATCC, RPMI-1640 medium was purchased from Gibco (Cat. No. A104910), fetal bovine serum was purchased from Excell (Cat. No. FND500), penicillin-streptomycin was purchased from Gibco (Cat. No. 15140122), bovine insulin was purchased from Yeasen (Cat. No. 40107ES60), 0.25% trypsin-EDTA was purchased from Gibco (Cat. No. 25200-072), D-PBS (phosphate-buffered saline without calcium and magnesium ions) was purchased from Hyclone (Cat. No. SH30256.01), and Matrigel was purchased from Corning (Cat. No. 356237).
Animal information: Balb/c nude mice, female, 5-6 weeks, weight about 14-20 g, purchased from Beijing Vital River Biotechnology Co., Ltd. The mice were bred in SPF-rated environment with air exhaust for each cage individually. All animals had free access to standard certified commercial laboratory diets and water.
Cell culture: The human ovarian cancer OVCAR3 cell strain was cultured in vitro under the conditions of RPMI-1640 added with 20% fetal bovine serum, 1% penicillin-streptomycin, and […] bovine insulin, and an incubator at 37° C. with 5% CO2. The cells were digested with a 0.25% trypsin-EDTA digestive solution once a week for passaging as per conventional practice. When the cell saturation was 80%-90% and a required amount was achieved, the cells were collected and counted.
Cell inoculation: 0.1 mL of OVCAR3 cell suspension (containing 1×10^7 cells, RPMI-1640: Matrigel, volume ratio 1:1) was inoculated subcutaneously into the axilla of each mouse. On day 26 after inoculation of the cells, the mice were randomly grouped and administrated based on tumor volume.
The day when random grouping was performed was day 0.
Tumor diameters were measured twice weekly using a vernier caliper. The tumor volume was calculated using the following formula: V=0.5a×b^2, where a and b represent the long diameter and short diameter of the tumor, respectively. Mouse body weight was measured twice weekly.

[4] = 37° C., 100 μg/mL
Description: ADC molecules (final concentration: 100 μg/mL) were separately incubated with human plasma (Oribiotech, PB021-C) and monkey plasma (Shinuoda Bio, SND-X0107) in an incubator at 37° C. The day of incubation was defined as day 0. Samples were taken on days 7, 14 and 28 and tested for the free small molecule.
300 μL of an internal standard working solution (acetonitrile preparation) was added to 20 μL of the sample, and the mixture was vortexed for mixing for 5 min and centrifuged for 5 min (14000 rpm). 4 μL of the supernatant was analyzed by LC-MS/MS (API 6500+).

[5] = system: MCF7-hROR1 clone 2G2; assay: FACS identification of MCF7 cell line stably transfected with human ROR1 protein; format: binding
Description: A nucleotide sequence encoding the amino acid sequence of human ROR1 (SEQ ID NO: 105) was cloned into a pLVX lentiviral vector, and viral particles were prepared in HEK293T cells. After lentivirus infection, the MCF7 cell line (purchased from Chinese Academy of Science), was selectively cultured in a DMEM (Gibco, Cat. No. 11995073) medium containing 5 μg/mL puromycin (Gibco, Cat. No. A1113803) and 10% (w/w) fetal bovine serum (ExCell Bio, Cat. No. FND500) for 1 week. Positive cell populations with different expression levels were sorted on a flow cytometer FACS Aria III (purchased from BD Biosciences) using ROR1-Ab-1 and goat anti-mouse IgG (H+L) antibody (Jackson, Cat. No. 115605006) and cultured in 96-well plates at 37° C. with 5% (v/v) CO2. After about 2 weeks, a portion of the cells were selected for expansion, and positive cell populations with better growth, higher fluorescence intensity, and better homogeneity were selected, further expanded and cryopreserved in liquid nitrogen.

**Q.** With IgG subtype control (antibody) as the molecule, how does the Mean fluorescence intensity of cells [1] read?
**A.** 54.7

**Q.** For “Pertuzumab: anti-human HER2 monoclonal antibody; VH SEQ ID NO: 3, VL SEQ ID NO: 4 [reference compound]”, which EC50 [2] is on record?
**A.** 3.73 nM

B1: ADC-DS: comparator CDH6 antibody-drug conjugate of Table 9, DAR 7.5 (conjugate, chains of the INN, looked up)
VH: EVQLVQSGAEVKKPGASVKVSCKASGYTFTRNFMHWVRQAPGQGLEWMGWIYPGDGETEYAQKFQGRVTITADTSTSTAYMELSSLRSEDTAVYYCARGVYGGFAGGYFDFWGQGTLVTVSS
VL: DIQMTQSPSSLSASVGDRVTITCKASQNIYKNLAWYQQKPGKAPKLLIYDANTLQTGVPSRFSGSGSGSDFTLTISSLQPEDFATYFCQQYYSGWAFGQGTKVEIK
modifications: deruxtecan payload, DAR 7.5
**Q.** Which “Mean tumor volume (mm^3) Day 0” value ([3]; Table 23) does the source give for B1 here?
**A.** 154.4 mm^3

**Q.** And the “Mean tumor volume (mm^3) Day 4” value ([3]; Table 23, Day 4)?
**A.** 211.3 mm^3

**Q.** And the “Mean tumor volume (mm^3) Day 7” value ([3]; Table 23, Day 7)?
**A.** 194.1 mm^3

**Q.** What about the “Mean tumor volume (mm^3) Day 11” value ([3]; Table 23, Day 11) of the same molecule?
**A.** 159.5 mm^3

**Q.** What about the “Mean tumor volume (mm^3) Day 14” value ([3]; Table 23, Day 14) of the same molecule?
**A.** 131.5 mm^3

**Q.** And the “Mean tumor volume (mm^3) Day 18” value ([3]; Table 23, Day 18)?
**A.** 95.5 mm^3

**Q.** What about the “Mean tumor volume (mm^3) Day 22” value ([3]; Table 23) of the same molecule?
**A.** 73.6 mm^3

**Q.** And the “Mean tumor volume (mm^3) Day 25” value ([3]; Table 23, Day 25)?
**A.** 66.0 mm^3

**Q.** And the “Mean tumor volume (mm^3) Day 28” value ([3]; Table 23, Day 28)?
**A.** 77.8 mm^3

**Q.** What about the “TGI (%) Day 28” value ([3]; Table 23, Day 28) of the same molecule?
**A.** 110.6%

**Q.** What about the “Mean tumor volume (mm^3) Day 0” value ([3]; Table 24) of the same molecule?
**A.** 145.0 mm^3

**Q.** What about the “Mean tumor volume (mm^3) Day 5” value ([3]; Table 24, Day 5) of the same molecule?
**A.** 165.9 mm^3

**Q.** What about the “Mean tumor volume (mm^3) Day 8” value ([3]; Table 24, Day 8) of the same molecule?
**A.** 153.4 mm^3

**Q.** And the “Mean tumor volume (mm^3) Day 12” value ([3]; Table 24, Day 12)?
**A.** 91.4 mm^3

**Q.** And the “Mean tumor volume (mm^3) Day 16” value ([3]; Table 24, Day 16)?
**A.** 56.2 mm^3

**Q.** What about the “Mean tumor volume (mm^3) Day 19” value ([3]; Table 24, Day 19) of the same molecule?
**A.** 41.2 mm^3

**Q.** What about the “Mean tumor volume (mm^3) Day 22” value ([3]; Table 24) of the same molecule?
**A.** 28.9 mm^3

**Q.** And the “Mean tumor volume (mm^3) Day 27” value ([3]; Table 24, Day 27)?
**A.** 23.4 mm^3

**Q.** And the “TG (%) Day 27” value ([3]; Table 24, Day 27)?
**A.** 134.2%

**Q.** And the “Free small molecule %” value ([4]; Human plasma, incubation 0 day)?
**A.** 0.59%

**Q.** And the “Free small molecule %” value ([4]; Human plasma, incubation 7 days)?
**A.** 0.72%

**Q.** What about the “Free small molecule %” value ([4]; Human plasma, incubation 14 days) of the same molecule?
**A.** 1.21%

**Q.** And the “Free small molecule %” value ([4]; Human plasma, incubation 28 days)?
**A.** 1.90%

**Q.** And the “Free small molecule %” value ([4]; Monkey plasma, incubation 0 day)?
**A.** 0.64%

**Q.** What about the “Free small molecule %” value ([4]; Monkey plasma, incubation 7 days) of the same molecule?
**A.** 2.28%

**Q.** What about the “Free small molecule %” value ([4]; Monkey plasma, incubation 14 days) of the same molecule?
**A.** 4.03%

**Q.** And the “Free small molecule %” value ([4]; Monkey plasma, incubation 28 days)?
**A.** 9.66%

B2: ROR1-Ab-1: anti-human ROR1 monoclonal antibody, variable region sequence from patent WO2020198531A2; SEQ ID NO: 80/81 (antibody, V domains shown)
VH: QVQLQESGPGLVKPSQTLSLTCTVSGYAFTAYNIHWVRQAPGQGLEWMGSFDPYDGGSSYNQKFKDRLTISKDTSKNQVVLTMTNMDPVDTATYYCARGWYYFDYWGHGTLVTVSS
VL: DIVMTQTPLSLPVTPGEPASISCRASKSISKYLAWYQQKPGQAPRLLIYSGSTLQSGIPPRFSGSGYGTDFTLTINNIESEDAAYYFCQQHDESPYTFGEGTKVEIK
**Q.** Which “Mean fluorescence intensity of cells” value [5] does the source give for B2 here?
**A.** 26497
